Results: article PMC9482650, “Quantitative fragmentomics allow affinity mapping of interactomes” (Nature Communications, 2022)

T1: ARHGAP21, Q5T5U3
T1 sequence (Q5T5U3 45-169, limits assumed, looked up): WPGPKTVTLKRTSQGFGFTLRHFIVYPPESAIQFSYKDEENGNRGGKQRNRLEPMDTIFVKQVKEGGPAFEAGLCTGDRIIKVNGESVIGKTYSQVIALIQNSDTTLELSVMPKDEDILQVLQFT

T2: SYNJ2BP, P57105
T2 sequence (P57105 8-110, limits assumed, looked up): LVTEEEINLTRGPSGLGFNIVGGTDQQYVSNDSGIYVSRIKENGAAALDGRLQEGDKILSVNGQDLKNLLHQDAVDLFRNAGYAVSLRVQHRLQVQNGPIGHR

T3: LIN7A, O14910
T3 sequence (O14910 103-200, limits assumed, looked up): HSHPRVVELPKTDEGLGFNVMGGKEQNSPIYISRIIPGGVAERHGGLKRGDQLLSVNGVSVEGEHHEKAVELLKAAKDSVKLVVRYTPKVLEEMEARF

T4: GRIP1_7, Q9Y3R0
T4 sequence (Q9Y3R0 999-1096, limits assumed, looked up): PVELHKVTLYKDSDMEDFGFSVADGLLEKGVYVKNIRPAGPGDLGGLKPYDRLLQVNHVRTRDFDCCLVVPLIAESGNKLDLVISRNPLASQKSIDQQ

T5: TX1BP3, O14907
T5 sequence (O14907 10-122, limits assumed, looked up): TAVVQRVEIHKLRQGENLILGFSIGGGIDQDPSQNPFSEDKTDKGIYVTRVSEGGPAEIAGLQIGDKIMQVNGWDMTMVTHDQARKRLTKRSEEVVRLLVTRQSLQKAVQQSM

T6: DFNB31_2, Q9P202
T6 sequence (Q9P202 274-371, limits assumed, looked up): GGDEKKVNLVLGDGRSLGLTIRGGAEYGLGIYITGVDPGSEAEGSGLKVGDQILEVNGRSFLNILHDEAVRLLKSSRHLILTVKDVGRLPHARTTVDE

T7: HTRA3, P83110
T7 sequence (P83110 354-453, limits assumed, looked up): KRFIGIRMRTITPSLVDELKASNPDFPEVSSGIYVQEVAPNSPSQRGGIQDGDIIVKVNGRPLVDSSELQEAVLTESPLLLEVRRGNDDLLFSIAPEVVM

T8: PDZD2_2, O15018
T8 sequence (O15018 329-429, limits assumed, looked up): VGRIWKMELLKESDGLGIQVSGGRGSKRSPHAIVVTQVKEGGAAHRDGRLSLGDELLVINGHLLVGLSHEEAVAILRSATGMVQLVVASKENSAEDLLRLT


Columns and labels:
Assay in all cases: holdup assay
Design in all cases: key: below the threshold = too weak to quantify, mostly under pKd 3.1 to 4
Conditions in all cases: plain residues with an end cap or a label only (N-terminal biotin on a linker: ado-ado)
[1] = biological target: T1, ARHGAP21, Q5T5U3
[2] = biological target: PICK1, Q9NRD5
[3] = biological target: FRMPD4, Q14CM0
[4] = biological target: T2, SYNJ2BP, P57105
[5] = biological target: T3, LIN7A, O14910
[6] = biological target: MAGI3_2, Q5TCQ9
[7] = biological target: TJP1_2, Q07157
[8] = biological target: Inadl_10, Q8NI35
[9] = biological target: GRIP2_3, Q9C0E4
[10] = biological target: SCRIB_2, Q14160
[11] = biological target: IL16_3, Q14005
[12] = biological target: MAGI2_3, Q86UL8
[13] = biological target: LNX1_2, Q8TBB1
[14] = biological target: Inadl_5, Q8NI35
[15] = biological target: T4, GRIP1_7, Q9Y3R0
[16] = biological target: T5, TX1BP3, O14907
[17] = biological target: Inadl_8, Q8NI35
[18] = biological target: Inadl_2, Q8NI35
[19] = biological target: GRID2IP_2, A4D2P6
[20] = biological target: T6, DFNB31_2, Q9P202
[21] = biological target: MAGI2_5, Q86UL8
[22] = biological target: DLG2_2, Q15700
[23] = biological target: FRMPD2_1, Q68DX3
[24] = biological target: DLG5_1, Q8TDM6
[25] = biological target: GORASP1, Q9BQQ3
[26] = biological target: DLG4_3, P78352
[27] = biological target: HTRA1, Q92743
[28] = biological target: T7, HTRA3, P83110
[29] = biological target: T8, PDZD2_2, O15018

Sequence of Inadl_2, Q8NI35 (Q8NI35 238-335): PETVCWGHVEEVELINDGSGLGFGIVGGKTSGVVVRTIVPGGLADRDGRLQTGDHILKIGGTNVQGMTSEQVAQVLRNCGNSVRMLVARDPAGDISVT
Sequence of HTRA1, Q92743 (Q92743 360-477): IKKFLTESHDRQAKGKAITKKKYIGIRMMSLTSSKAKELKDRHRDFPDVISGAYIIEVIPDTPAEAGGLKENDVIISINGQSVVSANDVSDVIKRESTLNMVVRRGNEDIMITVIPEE
Sequence of FRMPD2_1, Q68DX3 (Q68DX3 770-861): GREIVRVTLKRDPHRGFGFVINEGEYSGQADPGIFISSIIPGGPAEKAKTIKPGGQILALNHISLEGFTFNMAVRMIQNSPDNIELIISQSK
Sequence of MAGI3_2, Q5TCQ9 (Q5TCQ9 398-503): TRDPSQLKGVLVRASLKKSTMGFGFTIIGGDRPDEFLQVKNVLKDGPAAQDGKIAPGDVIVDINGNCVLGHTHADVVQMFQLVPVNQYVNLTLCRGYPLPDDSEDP
Sequence of DLG2_2, Q15700 (Q15700 189-283): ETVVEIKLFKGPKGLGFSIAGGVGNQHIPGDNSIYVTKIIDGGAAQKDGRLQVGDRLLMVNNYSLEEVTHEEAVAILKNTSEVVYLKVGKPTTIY
Sequence of DLG5_1, Q8TDM6 (Q8TDM6 617-713): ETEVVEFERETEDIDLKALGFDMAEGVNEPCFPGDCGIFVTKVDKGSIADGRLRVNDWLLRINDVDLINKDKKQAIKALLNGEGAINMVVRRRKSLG
Sequence of FRMPD4, Q14CM0 (Q14CM0 67-160): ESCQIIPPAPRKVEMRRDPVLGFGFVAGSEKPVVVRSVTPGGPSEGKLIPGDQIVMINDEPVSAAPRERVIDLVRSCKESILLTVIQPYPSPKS
Sequence of PICK1, Q9NRD5 (Q9NRD5 17-115): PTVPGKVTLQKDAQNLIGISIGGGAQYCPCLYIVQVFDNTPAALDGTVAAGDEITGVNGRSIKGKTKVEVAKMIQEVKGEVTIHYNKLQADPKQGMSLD
Sequence of MAGI2_5, Q86UL8 (Q86UL8 915-1017): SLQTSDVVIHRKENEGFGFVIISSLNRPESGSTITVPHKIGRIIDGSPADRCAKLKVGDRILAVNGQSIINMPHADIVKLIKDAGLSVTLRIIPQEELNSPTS
Sequence of DLG4_3, P78352 (P78352 306-403): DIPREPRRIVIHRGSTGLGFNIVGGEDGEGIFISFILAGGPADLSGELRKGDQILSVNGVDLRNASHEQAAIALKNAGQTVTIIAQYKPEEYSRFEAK
Sequence of SCRIB_2, Q14160 (Q14160 857-960): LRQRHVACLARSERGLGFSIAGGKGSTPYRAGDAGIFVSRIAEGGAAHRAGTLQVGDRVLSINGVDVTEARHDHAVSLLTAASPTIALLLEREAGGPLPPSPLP
Sequence of GORASP1, Q9BQQ3 (Q9BQQ3 1-208): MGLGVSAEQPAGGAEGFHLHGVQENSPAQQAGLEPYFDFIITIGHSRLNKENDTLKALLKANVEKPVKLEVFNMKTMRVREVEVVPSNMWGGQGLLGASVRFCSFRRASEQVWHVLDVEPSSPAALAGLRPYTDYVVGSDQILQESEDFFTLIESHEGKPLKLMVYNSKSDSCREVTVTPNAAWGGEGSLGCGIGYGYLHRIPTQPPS
Sequence of GRIP2_3, Q9C0E4 (Q9C0E4 238-339): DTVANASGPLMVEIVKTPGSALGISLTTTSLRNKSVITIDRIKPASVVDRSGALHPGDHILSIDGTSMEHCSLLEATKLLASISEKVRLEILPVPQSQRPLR
Sequence of TJP1_2, Q07157 (Q07157 181-274): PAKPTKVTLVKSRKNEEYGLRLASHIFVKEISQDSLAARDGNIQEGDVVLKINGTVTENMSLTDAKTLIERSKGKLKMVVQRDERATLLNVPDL
Sequence of LNX1_2, Q8TBB1 (Q8TBB1 371-470): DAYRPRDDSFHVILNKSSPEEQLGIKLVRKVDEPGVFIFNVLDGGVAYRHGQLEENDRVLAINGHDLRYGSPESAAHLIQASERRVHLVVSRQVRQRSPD
Sequence of GRID2IP_2, A4D2P6 (A4D2P6 272-370): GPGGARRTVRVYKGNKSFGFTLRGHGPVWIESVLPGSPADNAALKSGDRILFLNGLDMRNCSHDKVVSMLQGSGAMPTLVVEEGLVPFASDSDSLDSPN
Sequence of IL16_3, Q14005 (Q14005 1107-1207): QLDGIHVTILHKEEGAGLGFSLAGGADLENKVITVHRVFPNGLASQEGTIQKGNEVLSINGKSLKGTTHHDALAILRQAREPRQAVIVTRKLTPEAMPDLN
Sequence of Inadl_8, Q8NI35 (Q8NI35 1425-1530): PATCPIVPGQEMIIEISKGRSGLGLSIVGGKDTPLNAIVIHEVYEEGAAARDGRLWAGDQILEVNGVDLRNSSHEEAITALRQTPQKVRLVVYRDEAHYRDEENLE
Sequence of MAGI2_3, Q86UL8 (Q86UL8 600-682): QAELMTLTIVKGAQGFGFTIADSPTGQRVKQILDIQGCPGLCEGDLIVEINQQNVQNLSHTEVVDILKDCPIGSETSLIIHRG
Sequence of Inadl_5, Q8NI35 (Q8NI35 673-780): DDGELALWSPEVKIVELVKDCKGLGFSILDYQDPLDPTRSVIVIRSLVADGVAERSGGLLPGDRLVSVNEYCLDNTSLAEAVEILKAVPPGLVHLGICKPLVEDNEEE
Sequence of Inadl_10, Q8NI35 (Q8NI35 1673-1763): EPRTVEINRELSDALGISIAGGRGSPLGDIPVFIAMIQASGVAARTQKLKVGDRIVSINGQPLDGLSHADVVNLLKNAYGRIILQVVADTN

pKd [1]	pKd [2]	pKd [3]	pKd [4]	pKd [5]	pKd [6]	pKd [7]	pKd [8]	pKd [9]	pKd [10]	pKd [11]	pKd [12]	pKd [13]	pKd [14]	pKd [15]	pKd [16]	pKd [17]	pKd [18]	pKd [19]	pKd [20]	Binder	also measured
3.72	below the threshold	below the threshold	4.44	below the threshold	below the threshold	below the threshold	below the threshold	below the threshold	below the threshold	below the threshold	below the threshold	below the threshold	below the threshold	below the threshold	3.86	below the threshold	below the threshold	4.38	below the threshold	LEPAVRSSEL [SH2D3C, Q8N5H7]	pKd [21]: 4.28; pKd [22]: below the threshold; pKd [23]: below the threshold; pKd [24]: below the threshold; pKd [25]: below the threshold; pKd [26]: below the threshold; pKd [27]: below the threshold; pKd [28]: below the threshold; pKd [29]: 3.97
below the threshold	below the threshold	4.07	below the threshold	below the threshold	below the threshold	below the threshold	below the threshold	below the threshold	below the threshold	below the threshold	below the threshold	below the threshold	below the threshold	below the threshold	below the threshold	below the threshold	below the threshold	4.75	below the threshold	DQPLEKSTKL [AKAP10, O43572]	pKd [21]: 4.02; pKd [22]: below the threshold; pKd [23]: below the threshold; pKd [24]: below the threshold; pKd [25]: below the threshold; pKd [26]: below the threshold; pKd [27]: below the threshold; pKd [28]: below the threshold; pKd [29]: 4.23
